The source of these data is US20210009686A1.

Experiment [1] deals with claudin 18.1 (CLDN18.1) (human) (UniProt P56856). Put plainly: FACS, hybridoma supernatant on HEK293-CLDN18.1. (A flow cytometer gives signals particle by particle.)
Experiment [2] shares this target. Put plainly: in-cell ELISA, hybridoma supernatant on HEK293-CLDN18.1 cells. In general terms: ELISA stands for enzyme-linked immunosorbent assay.

claudin 18.1 (CLDN18.1) (human), sequence (P56856 whole entry): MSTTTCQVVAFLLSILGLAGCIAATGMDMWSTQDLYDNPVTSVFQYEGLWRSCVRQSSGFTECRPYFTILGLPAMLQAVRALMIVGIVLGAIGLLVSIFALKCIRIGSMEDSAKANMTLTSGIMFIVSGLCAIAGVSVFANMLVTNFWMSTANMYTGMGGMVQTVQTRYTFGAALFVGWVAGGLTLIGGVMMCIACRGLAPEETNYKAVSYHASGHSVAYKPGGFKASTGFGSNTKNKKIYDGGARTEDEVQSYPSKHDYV

B1: hybridoma clone 10-L9-A (antibody, V domains shown)
VH: EVQLVESGGGLVKPGGSRKLSCAASGFTFSDYGMHWVRQAPEKGLEWIAYINSGSSTIYYADTVKGRFTISRDNAKNTLFLQMTSLRSEDTAMFYCARFARGNVLDYWGQGTSVTVSS
VL: DIVMTQSPSSLTVTAGEKVTMSCRSSQSLLNSGNQRNYLTWYQQKPGHPPKLLIYWASTRESGVPDRFTGSGSGTDFTLTISGVQAEDLAVYYCQNGYSYPLTFGAGTKLEVK
Regarding B1, the MFI in experiment [1] turned out to be 14300. The OD450/µg IgG in experiment [2] amounted to 0.62 OD450/µg IgG.
